Assay results reported in patent US20250339569A1 (3B PHARMACEUTICALS, published 2025).
Starred links: 1 amine or outer side, 2 acyl side, 3 side chain; linkers in the order of their positions; H or OH if unused. Positions of bridges follow the written chain, without caps; N, C: chain ends. Non-standard residues stand in square brackets, D forms with d. Groups on a side chain read outwards from the residue. *: point of attachment. DOTA = O=C(O)CN1CCN(CC(=O)O)CCN(CC(=O)*)CCN(CC(=O)O)CC1; mXylylene = c1cc(C[*:1])cc(C[*:2])c1; tBuAla = CC(C)(C)C[C@H](N)C(=O)O; Aic = NC1(C(=O)O)Cc2ccccc2C1; Pen = CC(C)(S)[C@H](N)C(=O)O; Propanoyl(3-OH) = O=C(CCO)*; 4Amb = NCc1ccc(C(=O)O)cc1; Isovaleryl = CC(C)CC(=O)*; Ac6c = NC1(C(=O)O)CCCCC1; 4Amc = not defined here; APAc = not defined here; Ac5c = NC1(C(=O)O)CCCC1; Thp = NC1(C(=O)O)CCOCC1; Apr = not defined here; AEEA = NCCOCCOCC(=O)O; Nlys = NCCCCNCC(=O)O; Sar = CNCC(=O)O

target: human carbonic anhydrase 9 (CAIX) (human, UniProt Q16790 38-459); experiment: FACS competition on HT-29 cells against tracer 3BP-2776; pIC50 category A = pIC50 >8.0
Description: CAIX-expressing human HT-29 colorectal cancer cells (DSMZ, RRID: CVCL_0320) were cultured in McCoys's 5A modified medium (Biochrom, #F1015) including 10% fetal calf serum (FCS), 2 mM L-glutamine, 100 U/ml penicillin and 100 μg/mL streptomycin. Cells were detached with Accutase (Biolegend, #423201) and washed in FACS buffer (PBS including 1% FCS). Cells were diluted in FACS buffer to a final concentration of 500.000 cells per ml. 200 μL of the cell suspension were transferred to a u-shaped non-binding 96-well plate (Greiner) and cells were washed in ice-cold FACS buffer.
When biotinylated compounds were used an additional incubation step with 1 μg/mL APC-Streptavidin (Miltenyi; #130-106-791) in 50 μL FACS buffer for 30 minutes on ice was performed.
Cells were washed twice with ice-cold FACS buffer and analyzed in an Attune NxT flow cytometer (Thermo Fisher). Median fluorescence intensities (MFI) of the APC/Cy5-channel were calculated by Attune NxT software.

Row | Binder | pIC50 [pic50]
1 | {DOTA-APAc}-VYCE[dP]DW[Aic]TWSC-NH2 (linker 3-12 via mXylylene; reading uncertain, also called DOTA-APAc-Val-Tyr-[Cys(3MeBn)-Glu-pro-Asp-Trp-Aic-Thr-Trp-Ser-Cys]-NH2) [3BP-3586] | > 8
2 | Ac-YCE[dP]DWLTWSC-NH2 (linker 2-11 via 3MeBn, also called Ac-Tyr-[Cys(3MeBn)-Glu-pro-Asp-Trp-Leu-Thr-Trp-Ser-Cys]-NH2) [3BP-3729] | > 8
3 | {DOTA-APAc}-VYCE[dP]DW[Ac6c]TWSC-NH2 (linker 3-12 via mXylylene; reading uncertain, also called DOTA-APAc-Val-Tyr-[Cys(3MeBn)-Glu-pro-Asp-Trp-Egz-Thr-Trp-Ser-Cys]-NH2) [3BP-3584] | > 8
4 | {DOTA-APAc}-VYCE[dP]DW[Thp]TWSC-NH2 (linker 3-12 via mXylylene; reading uncertain, also called DOTA-APAc-Val-Tyr-[Cys(3MeBn)-Glu-pro-Asp-Trp-Thp-Thr-Trp-Ser-Cys]-NH2) [3BP-3585] | > 8
5 | Ac-VYCE[Nlys](DOTA)DWLTWAC-NH2 (linker 3-12 via mXylylene, also called Ac-Val-Tyr-[Cys(3MeBn)-Glu-Nlys(DOTA)-Asp-Trp-Leu-Thr-Trp-Ala-Cys]-NH2) [3BP-3562] | > 8
6 | Ac-VYCE[dP]DWLTWAC[4Amb]K(DOTA)-NH2 (linker 3-12 via mXylylene; SMILES CC(=O)N[C@H](C(=O)N[C@@H](Cc1ccc(O)cc1)C(=O)N[C@H]1CSCc2cccc(c2)CSC[C@@H](C(=O)NCc2ccc(C(=O)N[C@@H](CCCCNC(=O)CN3CCN(CC(=O)O)CCN(CC(=O)O)CCN(CC(=O)O)CC3)C(N)=O)cc2)NC(=O)[C@H](C)NC(=O)[C@H](Cc2c[nH]c3ccccc23)NC(=O)[C@H]([C@@H](C)O)NC(=O)[C@H](CC(C)C)NC(=O)[C@H](Cc2c[nH]c3ccccc23)NC(=O)[C@H](CC(=O)O)NC(=O)[C@H]2CCCN2C(=O)[C@H](CCC(=O)O)NC1=O)C(C)C, also called Ac-Val-Tyr-[Cys(3MeBn)-Glu-pro-Asp-Trp-Leu-Thr-Trp-Ala-Cys]-Pamb-Lys(DOTA)-NH2) [3BP-3477] | > 8
7 | Ac-SYCE[dP]DWLTWE([Apr-DOTA])C-NH2 (linker 3-12 via mXylylene; reading uncertain, also called Ac-Ser-Tyr-[Cys(3MeBn)-Glu-pro-Asp-Trp-Leu-Thr-Trp-Glu(NH-Apr-DOTA′)-Cys]-NH2) [3BP-3873] | > 8
8 | Ac-VYCE[dP]DW[tBuAla]TWSC-NH2 (linker 3-12 via mXylylene; SMILES CC(=O)N[C@H](C(=O)N[C@@H](Cc1ccc(O)cc1)C(=O)N[C@H]1CSCc2cccc(c2)CSC[C@@H](C(N)=O)NC(=O)[C@H](CO)NC(=O)[C@H](Cc2c[nH]c3ccccc23)NC(=O)[C@H]([C@@H](C)O)NC(=O)[C@H](CC(C)(C)C)NC(=O)[C@H](Cc2c[nH]c3ccccc23)NC(=O)[C@H](CC(=O)O)NC(=O)[C@H]2CCCN2C(=O)[C@H](CCC(=O)O)NC1=O)C(C)C, also called Ac-Val-Tyr-[Cys(3MeBn)-Glu-pro-Asp-Trp-Npg-Thr-Trp-Ser-Cys]-NH2) [3BP-3491] | > 8
9 | {DOTA-4Amc}-VYCE[dP]DW[tBuAla]TWAC-NH2 (linker 3-12 via mXylylene; reading uncertain, also called DOTA-4Amc-Val-Tyr-[Cys(3MeBn)-Glu-pro-Asp-Trp-Npg-Thr-Trp-Ala-Cys]-NH2) [3BP-3431] | > 8
10 | Ac-VYCE[dP]DW[tBuAla]TWAC-NH2 (linker 3-12 via mXylylene; SMILES CC(=O)N[C@H](C(=O)N[C@@H](Cc1ccc(O)cc1)C(=O)N[C@H]1CSCc2cccc(c2)CSC[C@@H](C(N)=O)NC(=O)[C@H](C)NC(=O)[C@H](Cc2c[nH]c3ccccc23)NC(=O)[C@H]([C@@H](C)O)NC(=O)[C@H](CC(C)(C)C)NC(=O)[C@H](Cc2c[nH]c3ccccc23)NC(=O)[C@H](CC(=O)O)NC(=O)[C@H]2CCCN2C(=O)[C@H](CCC(=O)O)NC1=O)C(C)C, also called Ac-Val-Tyr-[Cys(3MeBn)-Glu-pro-Asp-Trp-Npg-Thr-Trp-Ala-Cys]-NH2) [3BP-3490] | > 8
11 | Ac-VYCE[dP]DW[Ac6c]TWAC-NH2 (linker 3-12 via mXylylene; SMILES CC(=O)N[C@H](C(=O)N[C@@H](Cc1ccc(O)cc1)C(=O)N[C@H]1CSCc2cccc(c2)CSC[C@@H](C(N)=O)NC(=O)[C@H](C)NC(=O)[C@H](Cc2c[nH]c3ccccc23)NC(=O)[C@H]([C@@H](C)O)NC(=O)C2(CCCCC2)NC(=O)[C@H](Cc2c[nH]c3ccccc23)NC(=O)[C@H](CC(=O)O)NC(=O)[C@H]2CCCN2C(=O)[C@H](CCC(=O)O)NC1=O)C(C)C, also called Ac-Val-Tyr-[Cys(3MeBn)-Glu-pro-Asp-Trp-Egz-Thr-Trp-Ala-Cys]-NH2) [3BP-3503] | > 8
12 | Ac-VYCE[dP]DW[tBuAla]TWA[Pen]-NH2 (linker 3-12 via mXylylene; SMILES CC(=O)N[C@H](C(=O)N[C@@H](Cc1ccc(O)cc1)C(=O)N[C@H]1CSCc2cccc(c2)CSC(C)(C)[C@@H](C(N)=O)NC(=O)[C@H](C)NC(=O)[C@H](Cc2c[nH]c3ccccc23)NC(=O)[C@H]([C@@H](C)O)NC(=O)[C@H](CC(C)(C)C)NC(=O)[C@H](Cc2c[nH]c3ccccc23)NC(=O)[C@H](CC(=O)O)NC(=O)[C@H]2CCCN2C(=O)[C@H](CCC(=O)O)NC1=O)C(C)C, also called Ac-Val-Tyr-[Cys(3MeBn)-Glu-pro-Asp-Trp-Npg-Thr-Trp-Ala-Pen]-NH2) [3BP-3493] | > 8
13 | Ac-VYCE[Sar]DW[tBuAla]TWA[Pen]-NH2 (linker 3-12 via mXylylene; SMILES CC(=O)N[C@H](C(=O)N[C@@H](Cc1ccc(O)cc1)C(=O)N[C@H]1CSCc2cccc(c2)CSC(C)(C)[C@@H](C(N)=O)NC(=O)[C@H](C)NC(=O)[C@H](Cc2c[nH]c3ccccc23)NC(=O)[C@H]([C@@H](C)O)NC(=O)[C@H](CC(C)(C)C)NC(=O)[C@H](Cc2c[nH]c3ccccc23)NC(=O)[C@H](CC(=O)O)NC(=O)CN(C)C(=O)[C@H](CCC(=O)O)NC1=O)C(C)C, also called Ac-Val-Tyr-[Cys(3MeBn)-Glu-Nmg-Asp-Trp-Npg-Thr-Trp-Ala-Pen]-NH2) [3BP-3501] | > 8
14 | Ac-VYCE[dP]DWLTWAC[AEEA]K(DOTA)-NH2 (linker 3-12 via mXylylene; SMILES CC(=O)N[C@H](C(=O)N[C@@H](Cc1ccc(O)cc1)C(=O)N[C@H]1CSCc2cccc(c2)CSC[C@@H](C(=O)NCCOCCOCC(=O)N[C@@H](CCCCNC(=O)CN2CCN(CC(=O)O)CCN(CC(=O)O)CCN(CC(=O)O)CC2)C(N)=O)NC(=O)[C@H](C)NC(=O)[C@H](Cc2c[nH]c3ccccc23)NC(=O)[C@H]([C@@H](C)O)NC(=O)[C@H](CC(C)C)NC(=O)[C@H](Cc2c[nH]c3ccccc23)NC(=O)[C@H](CC(=O)O)NC(=O)[C@H]2CCCN2C(=O)[C@H](CCC(=O)O)NC1=O)C(C)C, also called Ac-Val-Tyr-[Cys(3MeBn)-Glu-pro-Asp-Trp-Leu-Thr-Trp-Ala-Cys]-O2Oc-Lys(DOTA)-NH2) [3BP-3474] | > 8
15 | Isovaleryl-YCE[dP]DWLTWSC-NH2 (linker 2-11 via mXylylene; SMILES CC(C)CC(=O)N[C@@H](Cc1ccc(O)cc1)C(=O)N[C@H]1CSCc2cccc(c2)CSC[C@@H](C(N)=O)NC(=O)[C@H](CO)NC(=O)[C@H](Cc2c[nH]c3ccccc23)NC(=O)[C@H]([C@@H](C)O)NC(=O)[C@H](CC(C)C)NC(=O)[C@H](Cc2c[nH]c3ccccc23)NC(=O)[C@H](CC(=O)O)NC(=O)[C@H]2CCCN2C(=O)[C@H](CCC(=O)O)NC1=O, also called Iva-Tyr-[Cys(3MeBn)-Glu-pro-Asp-Trp-Leu-Thr-Trp-Ser-Cys]-NH2) [3BP-3569] | > 8
16 | Isovaleryl-ECE[dP]DWLTWSC-NH2 (linker 2-11 via 3MeBn, also called Iva-Glu-[Cys(3MeBn)-Glu-pro-Asp-Trp-Leu-Thr-Trp-Ser-Cys]-NH2) [3BP-3728] | > 8
17 | Isovaleryl-SCE[dP]DWLTWE([Apr-AEEA-DOTA])C-NH2 (linker 2-11 via 3MeBn; reading uncertain, also called Iva-Ser-[Cys(3MeBn)-Glu-pro-Asp-Trp-Leu-Thr-Trp-Glu(NH-Apr-O2Oc-DOTA′)-Cys]-NH2) [3BP-3743] | > 8
18 | Isovaleryl-YCE[dP]DWLTWE([Apr-AEEA-DOTA])C-NH2 (linker 2-11 via 3MeBn; reading uncertain, also called Iva-Tyr-[Cys(3MeBn)-Glu-pro-Asp-Trp-Leu-Thr-Trp-Glu(NH-Apr-O2Oc-DOTA′)-Cys]-NH2) [3BP-3740] | > 8
19 | Isovaleryl-DCE[dP]DWLTWSC-NH2 (linker 2-11 via 3MeBn, also called Iva-Asp-[Cys(3MeBn)-Glu-pro-Asp-Trp-Leu-Thr-Trp-Ser-Cys]-NH2) [3BP-3727] | > 8
20 | Ac-YCE[dP]DWLTWE([Apr-DOTA])C-NH2 (linker 2-11 via 3MeBn; reading uncertain, also called Ac-Tyr-[Cys(3MeBn)-Glu-pro-Asp-Trp-Leu-Thr-Trp-Glu(NH-Apr-DOTA′)-Cys]-NH2) [3BP-3841] | > 8
21 | {Propanoyl(3-OH)}-YCE[dP]DWLTWE([Apr-DOTA])C-NH2 (linker 2-11 via mXylylene; reading uncertain, also called 3OHPr-Tyr-[Cys(3MeBn)-Glu-pro-Asp-Trp-Leu-Thr-Trp-Glu(NH-Apr-DOTA′)-Cys]-NH2) [3BP-3842] | > 8
22 | Isovaleryl-FCE[dP]DWLTWE([Apr-AEEA-DOTA])C-NH2 (linker 2-11 via 3MeBn; reading uncertain, also called Iva-Phe-[Cys(3MeBn)-Glu-pro-Asp-Trp-Leu-Thr-Trp-Glu(NH-Apr-O2Oc-DOTA′)-Cys]-NH2) [3BP-3742] | > 8
23 | Ac-VYCE[dP]DWLTWA[Pen]-NH2 (linker 3-12 via mXylylene; SMILES CC(=O)N[C@H](C(=O)N[C@@H](Cc1ccc(O)cc1)C(=O)N[C@H]1CSCc2cccc(c2)CSC(C)(C)[C@@H](C(N)=O)NC(=O)[C@H](C)NC(=O)[C@H](Cc2c[nH]c3ccccc23)NC(=O)[C@H]([C@@H](C)O)NC(=O)[C@H](CC(C)C)NC(=O)[C@H](Cc2c[nH]c3ccccc23)NC(=O)[C@H](CC(=O)O)NC(=O)[C@H]2CCCN2C(=O)[C@H](CCC(=O)O)NC1=O)C(C)C, also called Ac-Val-Tyr-[Cys(3MeBn)-Glu-pro-Asp-Trp-Leu-Thr-Trp-Ala-Pen]-NH2) [3BP-3492] | > 8
24 | {DOTA-APAc}-VYCE[dP]DW[Ac5c]TWSC-NH2 (linker 3-12 via mXylylene; reading uncertain, also called DOTA-APAc-Val-Tyr-[Cys(3MeBn)-Glu-pro-Asp-Trp-Eca-Thr-Trp-Ser-Cys]-NH2) [3BP-3587] | > 8
